Laboratory results: PMC4066437, “Oxidation of cellular amino acid pools leads to cytotoxic mistranslation of the genetic code” (eLife, 2014)

Experiments:
Experiment in all cases: ATP/PPi exchange (amino acid activation)
[1] = substrate: N[C@@H](Cc1ccccc1)C(=O)O; type: biochemical, Escherichia coli; details: 2 mM ATP, 2 mM [32P]PPi, 10 mM MgCl2, pH 7.2, 37 °C, stereochemistry of Phe not given
Text: (§1) ATP/PPi exchange (amino acid activation) on EcPheRS (E. coli phenylalanine-tRNA synthetase)

[2] = substrate: NC(Cc1cccc(O)c1)C(=O)O; type: biochemical, Escherichia coli; details: 2 mM ATP, 2 mM [32P]PPi, 10 mM MgCl2, pH 7.2, 37 °C, D,L-m-Tyr varied 20-2000 µM
Text: as §1

[3] = substrate: N[C@@H](Cc1ccccc1)C(=O)O; type: biochemical, Saccharomyces cerevisiae; details: 2 mM ATP, 2 mM [32P]PPi, 10 mM MgCl2, pH 7.2, 37 °C, stereochemistry of Phe not given
Text: (§2) ATP/PPi exchange (amino acid activation) on ScctPheRS (Saccharomyces cerevisiae cytoplasmic PheRS; Yeast ct)

[4] = substrate: NC(Cc1cccc(O)c1)C(=O)O; type: biochemical, Saccharomyces cerevisiae; details: 2 mM ATP, 2 mM [32P]PPi, 10 mM MgCl2, pH 7.2, 37 °C, D,L-m-Tyr varied 20-2000 µM
Text: as §2

B1: EcPheRS (E. coli phenylalanine-tRNA synthetase) (Escherichia coli K-12) (protein)
chain: MSHLAELVASAKAAISQASDVAALDNVRVEYLGKKGHLTLQMTTLRELPPEERPAAGAVINEAKEQVQQALNARKAELESAALNARLAAETIDVSLPGRRIENGGLHPVTRTIDRIESFFGELGFTVATGPEIEDDYHNFDALNIPGHHPARADHDTFWFDTTRLLRTQTSGVQIRTMKAQQPPIRIIAPGRVYRNDYDQTHTPMFHQMEGLIVDTNISFTNLKGTLHDFLRNFFEEDLQIRFRPSYFPFTEPSAEVDVMGKNGKWLEVLGCGMVHPNVLRNVGIDPEVYSGFAFGMGMERLTMLRYGVTDLRSFFENDLRFLKQFK
notes: His-tagged, from plasmid pQE31-EcFRS (pheS and pheT), dialysed against PPi; (alpha beta)2 heterotetramer; with Phenylalanine--tRNA ligase beta subunit
- Km [1]: 18 ± 4 µM
- kcat [1]: 5.2 ± 2 s⁻¹
- kcat/Km [1]: 290000 M⁻¹ s⁻¹
- Km [2]: 247 ± 60 µM
- kcat [2]: 2.1 ± 0.8 s⁻¹
- kcat/Km [2]: 8000 M⁻¹ s⁻¹

B2: ScctPheRS (Saccharomyces cerevisiae cytoplasmic PheRS; Yeast ct) (Saccharomyces cerevisiae S288C) (protein)
chain: SDFQLEILKKLDELDEIKSTLATFPQHGSQDVLSALNSLKAHNKLEFSKVDTVTYDLTKEGAQILNEGSYEIKLVKLIQELGQLQIKDVMSKLGPQVGKVGQARAFKNGWIAKNASNELELSAKLQNTDLNELTDETQSILAQIKNNSHLDSIDAKILNDLKKRKLIAQGKITDFNVTKGPEFSTDLTKLETDLTSDMVSTNAYKDLKFKPYNFNSQGVQISSGALHPLNKVREEFRQIFFSMGFTEMPSNQYVETGFWNFDALYVPQQHPARDLQDTFYIKDPLTADLPDDKTYMDNIKAVHEQGRFGSIGYRYNWKPEECQKLVLRTHSTAISARMLHDLAKDPKPTRLFSIDRVFRNEAVDATHLAEFHQVEGVLADYNITLGDLIKFMEEFFERMGVTGLRFKPTYNPYTEPSMEIFSWHEGLQKWVEIGNSGMFRPEMLESMGLPKDLRVLGWGLSLERPTMIKYKVQNIRELLGHKVSLDFIETNPAARLDEDLYE
notes: His-tagged purified cytoplasmic enzyme; (alpha beta)2 heterotetramer; with Phenylalanine--tRNA ligase beta subunit
- Km [3]: 16 ± 2 µM
- kcat [3]: 26 ± 4 s⁻¹
- kcat/Km [3]: 1.6e+06 M⁻¹ s⁻¹
- Km [4]: 1150 ± 230 µM
- kcat [4]: 26 ± 4 s⁻¹
- kcat/Km [4]: 23000 M⁻¹ s⁻¹
